Results reported in US20240174744A1 (SCIRHOM, published 2024).

Biological target: T1, hiR2-FL-I566E-T7 (human iRhom2 full length I566E, 3 x T7 tag) (human, UniProt Q6PJF5 1-856)
T1 sequence: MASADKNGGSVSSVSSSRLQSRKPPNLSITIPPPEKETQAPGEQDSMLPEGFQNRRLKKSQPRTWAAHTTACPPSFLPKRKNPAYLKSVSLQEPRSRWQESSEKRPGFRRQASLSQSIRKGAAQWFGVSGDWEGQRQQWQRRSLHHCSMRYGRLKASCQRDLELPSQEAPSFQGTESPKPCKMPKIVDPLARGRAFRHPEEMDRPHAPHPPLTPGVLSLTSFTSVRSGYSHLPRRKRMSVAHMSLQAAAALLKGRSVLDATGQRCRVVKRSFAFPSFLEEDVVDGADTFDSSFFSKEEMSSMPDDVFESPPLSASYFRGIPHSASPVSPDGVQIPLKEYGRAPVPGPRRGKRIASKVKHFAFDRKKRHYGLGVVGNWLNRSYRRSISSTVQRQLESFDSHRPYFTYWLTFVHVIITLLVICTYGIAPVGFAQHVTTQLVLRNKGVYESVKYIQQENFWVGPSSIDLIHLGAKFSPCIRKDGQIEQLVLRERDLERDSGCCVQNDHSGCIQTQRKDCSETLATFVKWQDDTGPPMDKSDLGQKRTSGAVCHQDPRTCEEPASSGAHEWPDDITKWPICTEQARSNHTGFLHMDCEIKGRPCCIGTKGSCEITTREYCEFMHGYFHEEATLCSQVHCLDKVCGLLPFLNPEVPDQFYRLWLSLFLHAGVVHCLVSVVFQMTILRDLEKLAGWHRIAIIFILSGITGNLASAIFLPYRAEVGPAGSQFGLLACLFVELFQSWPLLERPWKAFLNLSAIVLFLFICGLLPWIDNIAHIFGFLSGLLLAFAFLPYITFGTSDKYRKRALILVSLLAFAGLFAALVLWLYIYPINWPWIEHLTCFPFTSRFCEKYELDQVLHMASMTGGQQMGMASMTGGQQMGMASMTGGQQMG
Assay: FACS on cells of the row I566E, vs human iR2 wild type = 100%
Text: In brief, immortalized MEF-DKO hiR2-FL-G563D-T7, MEF-DKO hiR2-FL-A564P-T7, MEF-DKO hiR2-FL-I566E-T7, MEF-DKO hiR2-FL-D569E-T7, MEF-DKO hiR2-FL-E579K-T7, MEF-DKO hiR2-FL-Q580N-T7, MEF-DKO hiR2-FL-A581S-T7, MEF-DKO hiR2-FL-R582A-T7, MEF-DKO hiR2-FL-S583G-T7, MEF-DKO hiR2-FL-G587N-T7, MEF-DKO hiR2-FL-F588H-T7, MEF-DKO hiR2-FL-L589P-T7, MEF-DKO hiR2-FL-E594V-T7, MEF-DKO hiR2-FL-K596T-T7, MEF-DKO hiR2-FL-S607R-T7, MEF-DKO hiR2-FL-T612S-T7, MEF-DKO hiR2-FL-E617D-T7, MEF-DKO hiR2-FL-H620R-T7, MEF-DKO hiR2-FL-L636M-T7, MEF-DKO hiR2-FL-K638D-T7, MEF-DKO hiR2-FL-I771F-T7, MEF-DKO hiR2-FL-I825V-T7, MEF-DKO hiR2-FL-I828V-T7, MEF-DKO hiR2-FL-N829R-T7, MEF-DKO hiR2-FL-W830C-T7, MEF-DKO hiR2-FL-P831E-T7, MEF-DKO hiR2-FL-1833C-T7, MEF-DKO hiR2-FL-H835F-T7, MEF-DKO hiR2-FL-F839I-T7, MEF-DKO hiR2-FL-S843D-T7, MEF-DKO hiR2-FL-Q853A-T7, MEF-DKO hiR2-FL-V854Q-T7 and MEF-DKO hiR2-FL-R844K-T7 cells were harvested with 10 mM EDTA in PBS, washed and resuspended in FACS buffer (PBS, 3% FBS, 0.05% sodium azide), and seeded in Nunc U-bottom 96-well plates (Thermo Fisher Scientific, USA) at approximately 1×10⁵ cells per well. To pellet cells and remove supernatants, the plates were centrifuged at 1,500 rpm and 4° C. for 3 minutes. For primary staining, cells were resuspended in 100 μl per well of either FACS buffer alone (controls) or the purified antibodies 3, 5, 16, 22, 34, 42, 43, 44, 48, and 50 of the present disclosure at 3 μg/ml in FACS buffer and incubated on ice for 1 hour. Afterwards, plates were centrifuged at 1,500 rpm and 4° C. for 3 minutes and washed twice with 200 μl per well of FACS buffer. For secondary staining, cells were spun down and resuspended in 100 μl per well of PE-conjugated goat anti-mouse IgG F(ab′)2 detection fragment (Dianova, Germany) diluted 1:100 in FACS buffer. Protected from light, the cell suspensions were incubated on ice for 1 hour. Plates were then centrifuged at 1,500 rpm and 4° C. for 3 minutes and washed three times with 200 μl per well of FACS buffer. Finally, cells were resuspended in 150 μl per well of FACS buffer and analyzed using a BD Accuri™ C6 Plus flow cytometer (Becton Dickinson, Germany).

| Binder | grade of loss of binding vs wild type |
| --- | --- |
| antibody 43 (antibody, V domains shown, Mouse IgG, kappa light chain; also called clone #43) VH: QVALKESGPGILQPSQTLSLTCSFSGFSLSTFGMGVGWIRQSSGKGLEWLANIWWDDDKYYNPALKSRLTISKDASKNQAFLKIANVDTADTATYYCARIGNYGSNYWYFDVWGTGTTVTVSS VL: QIVLTQSPAIMSASPGERVTMTCSANSRISYMYWYQQKPGSSPRLLIYDTSNLASGVPVRFSGSGSGTSYSLTISRMEAEDAATYNCQQWSSYPLTFGAGTKLELK | 2 grade (2 => 60% loss of binding vs wild type) |
| antibody 44 (antibody, V domains shown, Mouse IgG, kappa light chain; also called clone #44; m44) VH: QVTLKESGPGILQPSQTLSLTCSFSGFSLSTFGMGVGWIRQPSEKGLEWLAHIWWDDDKYYNPALKSRLTISKDTSKNQIFLKITNVDTAETATYYCSRIGNYGSNYWYFDVWGTGTTVTVSS VL: QIVLTQSPAVMSASPGEKVTMTCTASSSVYYMYWYQQTPGSSPRLLIYDTSNLASGVPVRFSGSGSGTSYSLTISRMEAEDAATYYCQQWNTYPLTFGAGTKLELK | 2 grade (2 => 60% loss of binding vs wild type) |
| antibody 42 (antibody, V domains shown, Mouse IgG, kappa light chain; also called clone #42; m42) VH: QVTLKESGPGILQPSQTLSLTCSLSGFSLSTFGRGVGWIRQPSGKGLEWLAHIWWDDEKYYNPALKSRLTISKDTSKNQVFLRIANVDTADTATYYCARIQNYGSNYWYFDVWGTGTTVTVSS VL: LIVLTQSPAIMSASPGEKVTMTCGATSRISYMFWYQQKPGSSPRVLIYDTSNLASGVPVRFSGSGSGTSYSLTISRVEAEDVATYYCQQWNSYPLTFGAGTKLELK | 2 grade (2 => 60% loss of binding vs wild type) |
| antibody 22 (antibody, V domains shown, Mouse IgG, kappa light chain; also called clone #22; m22) VH: QVTLKESGPGILQPSQTLSLTCSFSGFSLSTFGMGVGWIRQPSGKGLEWLAHIWWDDEKYYNSALKSRLTISKATSKNQVFLKIANVDTADTATYYCARISNYGSNYWYFNVWGTGTTVTVSS VL: QVVLTQSPALMSASPGEKVTMTCSAGSSVSYMYWYQQKPGSSPRVLIYDTSNLASGVPARFTGSGSGTSYSLTISRMEAEDAATYYCQQWNSYPLTFGAGTKLELK | 2 grade (2 => 60% loss of binding vs wild type) |
| antibody 34 (antibody, V domains shown, Mouse IgG, kappa light chain; also called clone #34; m34) VH: QVTLKESGPGILQPSQTLSLTCSFSGFSLSTFSLGVGWIRQSSGKGLEWLAHIWWDDEKYYNPALKSRLTISKDTSKNQVFLKIANVDAADTATYYCARAYYSKSYYALDYWGQGTSVTVSS VL: DIQMTQSPSSLSASLGERVSLTCRASQEISGYLSWLQQKPDGTIKRLIYAASTLDSGVPKRFSGSRSGSDYSLAISSLESEDFADYYCLQYANFPFTFGSGTKLEIK | 2 grade (2 => 60% loss of binding vs wild type) |
